The source of these data is US6861578B1, “Method for plant protection against insects or nematodes by transformation with a nucleic acid encoding equistatin” (Plant Research International B.V., priority 1997, dated 2005).

Test [1] addresses proteases in extracts of adult leafminer flies (Liriomyza trifolii). Briefly: cell-based or functional assay.
Test [2] has as its target potato protease inhibitor-insensitive cysteine proteases of Colorado potato beetle (Leptinotarsa decemlineata) larval gut extracts. The test can be described thus: cell-based or functional assay.
Test [3] has as its system Colorado potato beetle larval gut extracts (potato protease inhibitor-insensitive cysteine proteases). Briefly: General proteolytic activity of Colorado potato beetle larval gut extracts, azocasein. The format is biochemical, Leptinotarsa decemlineata. The source says: Guts of final instar Colorado potato beetle larvae reared on methyl jasmonate induced plants were isolated and extracted essentially as described (Bolter and Jongsma, J. Insect Physiol. 41: 1071-1078). In these gut extracts the proteases that are sensitive to the protease inhibitors of potato are already complexed. The residual protease activity is composed of potato protease-inhibitor-insensitive proteases which were induced in response to the methyl jasmonate induced potato inhibitors. These proteases are the proteases that render the beetle larvae insensitive to protease inhibitor defense of the potato plant. Wle tested a broad range of different cysteisie protease inhibitors for activity specifically against these induced potato protease inhibitor-insensitive cysteine protesses. Nearly all of these inhibitors were purified at the Jozef Stefan Institute in Slovenia. Testing their potential against Colorado potato beetle was done using both general protein substrates (azocasein, table 2) as well as specific synthetic substrates (L-Arg-pNA, table 3; pGlu-Phe-Leu-pNA, table 4; Z-Phe-Arg-pNA, table 5; Z-Arg-Arg-pNA, table 6). In specific cases inhibitors were tested at two concentrations, eauimolar and in excess to the protease, in order to obtain an indication of the tightness of the complex. […] Importantly, this class of inhibitors was capable of inhibiting nearly all general cysteine protease activity. The equistatin peptide molecule and a functional derivative thereof were not very active against the aminopeptidase-like cysteine protease activity. […] The best combination of inhibitors for full toxicity against the Colorado potato beetle would therefore be a combination of equistatin or p41 invariant chain fragment and stefin-like inhibitors.

Molecule “Aspartic protease inhibitor (API) purified from potato” showed a residual protease activity (FITC-hemoglobin), pH 3.5 (% residual activity) in test [1] of 37. The molecule bromelain inhibitor came in with a residual general proteolytic activity (azocasein) in excess of inhibitor (% residual activity) in test [2] of 110. Still for that read-out and setting: the value for cowpea cystatin was 75.

Molecule “human LMW kininogen (from UniProt P01042 19-427)” showed a residual general proteolytic activity (azocasein) in excess of inhibitor (% residual activity) in test [2] of 65. In the case of Chelidonium majus cystatin, the residual general proteolytic activity (azocasein) in excess of inhibitor (% residual activity) in test [2] turned out to be 100. In test [2], lens cystatin yielded a residual general proteolytic activity (azocasein) in excess of inhibitor (% residual activity) of 60. In turn, “Recombinant potato cystatin (p.cystatin), a monomer of multicystatin expressed as a fusion protein with glutathione-S-transferase” gave a residual protease activity (FITC-hemoglobin), pH 3.5 (% residual activity) in test [1] of 73. In test [2], soybean cystatin gave a residual general proteolytic activity (azocasein) in excess of inhibitor (% residual activity) of 65.

In the case of bovine kininogen, the residual general proteolytic activity (azocasein) in excess of inhibitor (% residual activity) in test [2] worked out at 110. Take “Recombinant human stefin A (from UniProt P01040 1-98)”: in test [2], the residual amino-peptidase activity (L-Arg-pNA), equimolar inhibitor (% of residual activity) came to 60; the residual amino-peptidase activity (L-Arg-pNA), excess inhibitor (% of residual activity) was determined as 10; the residual broad spectrum endoprotease activity (Z-Phe-Arg-pNA), equimolar inhibitor (% of residual activity) is 95; the residual broad spectrum endoprotease activity (Z-Phe-Arg-pNA), excess inhibitor (% of residual activity) is 80. In test [2], this molecule came in with a residual general proteolytic activity (azocasein) in excess of inhibitor (% residual activity) of 90; a residual narrow spectrum endoprotease activity (Z-Arg-Arg-pNA), excess inhibitor (% of residual activity) of 90; a residual tri-peptidil-peptidase and endoprotease activity (pGlu-Phe-Leu-pNA), equimolar inhibitor (% of residual activity) of 95; a residual tri-peptidil-peptidase and endoprotease activity (pGlu-Phe-Leu-pNA), excess inhibitor (% of residual activity) of 90. For PCPI 6.6, the residual general proteolytic activity (azocasein) in excess of inhibitor (% residual activity) in test [2] came out at 120. For “human kininogen 3rd domain (from UniProt P01042 273-376)”, the residual general proteolytic activity (azocasein) in excess of inhibitor (% residual activity) in test [2] came to 20. Turning to “porcine stefin D2 (from UniProt P80736 1-35)”, the residual general proteolytic activity (azocasein) in excess of inhibitor (% residual activity) in test [2] came out at 105.

B1: bovine kininogen: Type III cystatin (protein, UniProt P01044 19-621, looked up)
Kininogen-1: QESSQEIDCNDQDVFKAVDAALTKYNSENKSGNQFVLYRITEVARMDNPDTFYSLKYQIKEGDCPFQSNKTWQDCDYKDSAQAATGECTATVAKRGNMKFSVAIQTCLITPAEGPVVTAQYECLGCVHPISTKSPDLEPVLRYAIQYFNNNTSHSHLFDLKEVKRAQRQVVSGWNYEVNYSIAQTNCSKEEFSFLTPDCKSLSSGDTGECTDKAHVDVKLRISSFSQKCDLYPVKDFVQPPTRLCAGCPKPIPVDSPDLEEPLSHSIAKLNAEHDGAFYFKIDTVKKATVQVVAGLKYSIVFIARETTCSKGSNEELTKSCEINIHGQILHCDANVYVVPWEEKVYPTVNCQPLGQTSLMKRPPGFSPFRSVQVMKTEGSTTVSLPHSAMSPVQDEERDSGKEQGPTHGHGWDHGKQIKLHGLGLGHKHKHDQGHGHHGSHGLGHGHQKQHGLGHGHKHGHGHGKHKNKGKNNGKHYDWRTPYLASSYEDSTTSSAQTQEKTEETTLSSLAQPGVAITFPDFQDSDLIATVMPNTLPPHTESDDDWIPDIQTEPNSLAFKLISDFPETTSPKCPSRPWKPVNGVNPTVEMKESHDFDLVDALL
Take B1: in test [3], the “Residual activity in excess of inhibitor” value stood at 110%.

B2: potato multicystatin (protein, UniProt P37842 1-756, looked up)
chain: MAIVGGLVDVPFENKVEFDDLARFAVQDYNQKNDSSLEFKKVLNVKQQIVAGIMYYITFEATEGGNKKEYEAKILLRKWEDLKKVVGFKLVGDDSTMPGGIVNVPNPNNTKFQELARFAIQDYNKKQNAHLEFVENLNVKEQVVAGIMYYITLAATDDAGKKKIYKAKIWVKEWEDFKKVVEFKLVGDDIAKLGGITDVPFPNNPEFQDLARFAIQVYNKKENVHLEFVENLNVKQQVVAGMMYYITLAAIDAGKKKIYETKIWVKEWEDFKKVVEFKLVGDDSAKTGGIINVPNPNSPEFQDLARFAVQDYNNTQNAHLEFVENLNVKEQLVSGMMYYITLAATDAGNKKEYEAKIWVKEWEDFKKVIDFKLVGNDSAKKLGGFTEVPFPNSPEFQDLTRFAVHQYNKDQNAHLEFVENLNVKKQVVAGMLYYITFAATDGGKKKIYETKIWVKVWENFKKVVEFKLVGDDSAKLGGIINVPFPNNPEFQDLARFAVQDYNKKENAHLEFVENLNVKEQLVAGMLYYITLVAIDAGKKKIYEAKIWVKEWENFKKVIEFKLIGDDSAIIGGFTDVPFPNNPEFQDLARFAVQDYNKKENAHLEYVENLNVKEQLVAGMIYYITLVATDAGKKKIYEAKIWVKEWEDFKKVVEFKLVGDDSAKPGGIIIVPFPNSPEFQDLARFAVQDFNKKENGHLEFVENLNVKEQVVAGMMYYITLAATDARKKEIYETKILVKEWENFKEVQEFKLVGDATK
In test [2], B2 registered a residual general proteolytic activity (azocasein) in excess of inhibitor (% residual activity) of 90. Further, the “Residual activity in excess of inhibitor” value in test [3] amounted to 90%.

B3: human cystatin c (protein, UniProt P01034 27-146, looked up)
chain: SSPGKPPRLVGGPMDASVEEEGVRRALDFAVGEYNKASNDMYHSRALQVVRARKQIVAGVNYFLDVELGRTTCTKTQPNLDNCPFHDQPHLKRKAFCSFQIYAVPWQGTMTLSKSTCQDA
On to B3, for which the residual general proteolytic activity (azocasein) in excess of inhibitor (% residual activity) in test [2] was determined as 105. In addition, the “Residual activity in excess of inhibitor” value in test [3] was 105%.

B4: porcine stefin B (protein, UniProt Q29290 1-98, looked up)
chain: MMCGAPSATQPATAEIQAIADKVKSQLEEKENKTFPVFKAVEFKSQVVAGRNLFIKVQVDDDDFVHLRVFESLPHENKPLTLSSYQTNKSRHDELTYF
The molecule B4 gave a residual general proteolytic activity (azocasein) in excess of inhibitor (% residual activity) in test [2] of 100. In test [3], the “Residual activity in excess of inhibitor” value is listed as 100%.

B5: Recombinant Kunitz PCPI8.3 (produced in Pichia pastoris) (protein, potato, UniProt P20347 43-222, looked up)
chain: LVLPEVYDQDGNPLRIGERYIINNPLLGAGAVYLYNIGNLQCPNAVLQHMSIPQFLGEGTPVVFVRKSESDYGDVVRVMTVVYIKFFVKTTKLCVDQTVWKVNDEQLVVTGGKVGNENDIFKIMKTDLVTPGGSKYVYKLLHCPSHLGCKNIGGNFKNGYPRLVTVDDDKDFIPFVFIKA
In test [1], B5 returned a residual protease activity (FITC-hemoglobin), pH 3.5 (% residual activity) of 43.

B6: chicken cystatin (protein, UniProt P01038 24-139, looked up)
chain: SEDRSRLLGAPVPVDENDEGLQRALQFAMAEYNRASNDKYSSRVVRVISAKRQLVSGIKYILQVEIGRTTCPKSSGDLQSCEFHDEPEMAKYTTCTFVVYSIPWLNQIKLLESKCQ
As to B6, the residual general proteolytic activity (azocasein) in excess of inhibitor (% residual activity) in test [2] stood at 105. In test [3], the “Residual activity in excess of inhibitor” value stood at 105%.

B7: rat stefin A (protein, UniProt P01039 1-103, looked up)
chain: MDPGTTGIVGGVSEAKPATPEIQEVADKVKRQLEEKTNEKYEKFKVVEYKSQVVAGQILFMKVDVGNGRFLHMKVLRGLSGDDDLKLLDYQTNKTKNDELTDF
As to B7, the residual general proteolytic activity (azocasein) in excess of inhibitor (% residual activity) in test [2] is 90.

B8: porcine stefin D1 (protein, UniProt P35479 1-103, looked up)
chain: MESEEMLAGGLTEPRPATPEIQEIANKVKPQLEEKTNKTYEKFEAIIYRSQVVAGTNYYIKVHVGGNNYVHIRVFQSLPHQEDPLKLIGYQVDKTKDDELTGF
As to B8, the residual general proteolytic activity (azocasein) in excess of inhibitor (% residual activity) in test [2] is 105.
